{"source": "patent US8357523B2", "about": "“Beta-glucosidase variant enzymes and related polynucleotides” (Codexis, Inc., priority 2009, dated 2013)", "molecules": {"B1": {"name": "T2A + A5T + I14M + N79D + G127N + A143M + H145R + V159E + A198S + V207F + F211Y + I222A + S225C + Q508R + A525T-des[A647-L663] (protein)", "chain": "SAAITQEGAAPAAMLHPEKWPRPATQRLIDPAVEKRVDALLKQLSVEEKVGQVIQGDIGTITPEDLRKYPLGSILAGGDSGPNGDDRAPPKEWLDLADAFYRVSLEKRPGHTPIPVLFGIDAVHGHNNIGSATIFPHNIALGMTRDPELLRRIGEVTAEEMAATGIDWTFAPALSVVRDDRWGRTYEGFSEDPEIVASYSAAIVEGFQGKYGSKDFMAPGRAVACAKHFLADGGTDQGRDQGDARISEDELIRIHNAGYPPAIDAGVLTVMASFSSWQGIKHHGHKQLLTDVLKGQMGFNGFIVGDWNAHDQVPGCTKFNCPTSLIAGLDMYMAADSWKQLYENTLAQVKDGTIPMARLDDAVRRILRVKVLAGLFEKPAPKDRPGLPGLETLGSPEHRAVGREAVRKSLVLLKNDKGTLPLSPKARVLVAGDGADNIGKQSGGWTISWQGTGNRNDEFPGATSILGGIRDAVADAGGSVEFDVAGQYKTKPDVAIVVFGEEPYAEFRGDVETLEYQPDQKQDLTLLKKLKDQGIPVVAVFLSGRPMWVNPELNASDAFVAAWLPGTEGGGVADVLFTDKAGKVQHDFAGKLSYSWPRTAAQTTVNRGDADYNPLFAYGYGLTYKDKSKVGTLPEESGVPAEARQN"}}, "experiment": "Saccharification of microcrystalline cellulose by Trichoderma reesei whole cellulase supplemented with β-glucosidase", "type": "biochemical", "conditions": "1 g/L TRWC alone or 25% of TRWC substituted with the β-glucosidase; 200 g/L Avicel, 100 g/L xylose, pH5.5, 55° C., 48 hours", "source_text": "FIG. 12 illustrates the impact of supplementing a commercially available Trichoderma reesei whole cellulose (“TRWC”) mixture with a CelA variant of the present invention. Compositions containing TRWC were supplemented with β-glucosdiases CelA Variant No. 264 (“Cel var1”), CelA Variant No. 366 (“Cel var2”), and a commercially available Aspergillus niger β-glucosidase (“ANBG”) in a ratio of 3:1 TRWC to β-glucosidase. The effectiveness of each composition at hydrolyzing microcrystalline cellulose was evaluated as described in Example 15. A plot of glucose and cellobiose concentration (g/L) vs. cellulase composition is depicted. The control composition was TRWC with no added β-glucosidase.\nThe impact of adding a CelA variant of the present invention to commercially available cellulose mixtures and microcrystalline cellulose, Avicel™, was evaluated. In the test reactions, 1 g/L Trichoderma reesei whole cellulose (“TRWC”, Sigma catalog #C85456-10KU (ATCC 26921)) was used to convert 200 g/L of the microcrystalline cellulose Avicel™ (200 mM Sodium acetate; 100 g/L xylose, pH5.5 and 55° C.). The amount of glucose was measured after 48 hours of reaction. As a comparison, 25% of the TRWC was replaced with a β-glucosidase: Variant No. 264 (“Cel var1”), Variant No. 366 (“Cel var2”), or with the commercially available cellobiase, Aspergillus niger beta-glucosidase (“ANBG”, Sigma catalog #49291-1G). […]", "data": [{"molecule": "B1", "values": [{"measurement": "cellobiose and glucose combined yielded in saccharification reaction", "result": "comparable results"}]}]}
